Results: patent US20200339690A1

Columns and labels:
human LILRA1 (human) = human LILRA1 (human) (UniProt O75019); experiment: flow cytometry, LILRA1 CHOs
[1] = target: human LILRB2 expressed on cells (human) (UniProt Q8N423); experiment: flow cytometry, human whole blood, monocytes
[2] = target: human LILRB2 expressed on cells (human) (UniProt Q8N423); experiment: flow cytometry, human whole blood, neutrophils
human LILRA4 (human) = human LILRA4 (human) (UniProt P59901); experiment: flow cytometry, LILRA4 CHOs
[3] = target: Cyno Monocytes / Cyno Neutrophils (Macaca fascicularis); experiment: flow cytometry, cyno whole blood, neutrophils
[4] = target: Rhesus Monocytes / Rhesus Neutrophils (Macaca mulatta); experiment: flow cytometry, rhesus whole blood, neutrophils
[5] = target: Cyno Monocytes / Cyno Neutrophils (Macaca fascicularis); experiment: flow cytometry, cyno whole blood, monocytes
[6] = target: Rhesus Monocytes / Rhesus Neutrophils (Macaca mulatta); experiment: flow cytometry, rhesus whole blood, monocytes

Sequence of human LILRB2 expressed on cells (human) (Q8N423 other isoform, or with tags, fused parts or gaps limits assumed): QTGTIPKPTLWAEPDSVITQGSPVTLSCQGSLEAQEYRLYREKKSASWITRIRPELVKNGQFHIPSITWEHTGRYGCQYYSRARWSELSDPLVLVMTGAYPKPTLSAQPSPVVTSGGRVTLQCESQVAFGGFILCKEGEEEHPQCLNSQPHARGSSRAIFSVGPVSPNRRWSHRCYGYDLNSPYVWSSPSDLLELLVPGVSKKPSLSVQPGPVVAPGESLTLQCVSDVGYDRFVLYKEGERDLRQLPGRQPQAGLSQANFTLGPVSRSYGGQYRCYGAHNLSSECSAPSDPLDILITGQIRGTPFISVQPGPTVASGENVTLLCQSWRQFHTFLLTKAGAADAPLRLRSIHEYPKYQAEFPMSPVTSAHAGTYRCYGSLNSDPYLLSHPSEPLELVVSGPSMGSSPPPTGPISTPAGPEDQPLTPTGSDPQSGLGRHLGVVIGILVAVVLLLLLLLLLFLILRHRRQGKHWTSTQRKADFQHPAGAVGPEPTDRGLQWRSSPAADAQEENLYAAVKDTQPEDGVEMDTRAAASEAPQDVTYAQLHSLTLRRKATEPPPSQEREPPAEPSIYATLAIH
Sequence of human LILRA4 (human) (P59901 other isoform, or with tags, fused parts or gaps limits assumed): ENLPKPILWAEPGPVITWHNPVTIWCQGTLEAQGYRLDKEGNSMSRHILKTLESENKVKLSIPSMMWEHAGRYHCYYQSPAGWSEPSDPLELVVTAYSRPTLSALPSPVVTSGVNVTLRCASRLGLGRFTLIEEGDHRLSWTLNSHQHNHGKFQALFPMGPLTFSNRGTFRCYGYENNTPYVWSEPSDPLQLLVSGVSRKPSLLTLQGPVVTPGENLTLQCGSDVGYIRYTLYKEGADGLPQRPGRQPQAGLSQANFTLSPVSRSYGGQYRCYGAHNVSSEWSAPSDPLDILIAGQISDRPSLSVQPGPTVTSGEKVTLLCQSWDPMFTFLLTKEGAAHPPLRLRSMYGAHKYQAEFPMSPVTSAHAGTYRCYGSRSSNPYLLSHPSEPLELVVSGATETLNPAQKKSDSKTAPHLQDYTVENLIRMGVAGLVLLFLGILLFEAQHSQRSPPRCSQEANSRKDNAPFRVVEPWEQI
Sequence of human LILRA1 (human) (O75019 17-489 limits assumed): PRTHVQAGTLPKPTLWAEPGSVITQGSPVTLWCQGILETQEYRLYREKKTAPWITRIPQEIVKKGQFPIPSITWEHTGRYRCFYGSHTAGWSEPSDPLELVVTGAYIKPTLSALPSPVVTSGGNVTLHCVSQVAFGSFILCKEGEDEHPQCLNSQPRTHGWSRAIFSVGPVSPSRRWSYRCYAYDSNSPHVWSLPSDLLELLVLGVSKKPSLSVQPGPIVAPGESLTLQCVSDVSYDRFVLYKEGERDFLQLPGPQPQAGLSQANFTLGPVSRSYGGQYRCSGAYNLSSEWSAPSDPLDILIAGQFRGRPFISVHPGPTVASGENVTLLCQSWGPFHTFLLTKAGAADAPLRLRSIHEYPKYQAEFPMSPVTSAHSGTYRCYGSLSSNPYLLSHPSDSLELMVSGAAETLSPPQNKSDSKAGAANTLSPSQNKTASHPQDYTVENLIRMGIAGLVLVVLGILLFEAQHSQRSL

isotype control mAb (antibody)
1: binding (fold over iso) (fold over iso) (human LILRA1 (human)) | Human Monocytes binding (fold over iso) (fold over iso) [1] | Human Neutrophils binding (fold over iso) (fold over iso) [2] | binding (fold over iso) (fold over iso) (human LILRA4 (human)) | Cyno Neutrophils binding (fold over iso) (fold over iso) [3] | Rhesus Neutrophils binding (fold over iso) (fold over iso) [4] | Cyno Monocytes binding (fold over iso) (fold over iso) [5] | Rhesus Monocytes binding (fold over iso) (fold over iso) [6]
